Measurements from publication PMC10814857 (2024).

How the values were obtained:
Experiment in all cases: FP
[1] = target: RP1, fluorescein-labelled reference peptide, a SOS1 derivative encompassing part of P3 (human, UniProt Q07889, fluorescein (FITC) label, position not stated)
[2] = target: RP2, fluorescein-labelled reference peptide from the N-terminal extension of the RHO GTPase WRCH1/RHOU (human, UniProt Q7L0Q8, fluorescein (FITC) label, position not stated)
[3] = target: P7, fluorescein-labelled proline-rich peptide from the SOS1 proline-rich domain (human, UniProt Q07889, fluorescein (FITC) label, position not stated)
[4] = target: P9, fluorescein-labelled proline-rich peptide from the SOS1 proline-rich domain (human, UniProt Q07889, fluorescein (FITC) label, position not stated)
[5] = target: P3, fluorescein-labelled proline-rich peptide from the SOS1 proline-rich domain (human, UniProt Q07889, fluorescein (FITC) label, position not stated)
[6] = target: P4, fluorescein-labelled proline-rich peptide from the SOS1 proline-rich domain (human, UniProt Q07889, fluorescein (FITC) label, position not stated)
[7] = target: P2, fluorescein-labelled proline-rich peptide from the SOS1 proline-rich domain (human, UniProt Q07889, fluorescein (FITC) label, position not stated)

Binder | Kd [1] [µM] | Kd [2] [µM] | Kd [3] [µM] | other results
ARHGAP12 SH3 domain, GST cleaved (domain or fragment) PGQVYIEVEYDYEYEAKDRKIVIKQGERYILVKKTNDDWWQVKPDENSKAFYVPAQYVKEVTR | 16.7 | 15.5 | – | Kd [5]: 13.8 µM
ABI1 SH3 domain, GST cleaved (domain or fragment) NYIEKVVAIYDYTKDKDDELSFMEGAIIYVIKKNDDGWYEGVCNRVTGLFPGNYVESIMH | – | – | – | Kd [6]: 24.6 µM; Kd [7]: 60.7 µM
ABL2 SH3 domain, GST cleaved (domain or fragment) SDPNLFVALYDFVASGDNTLSITKGEKLRVLGYNQNGEWSEVRSKNGQGWVPSNYITPVNS | 11 | – | 67.3 | Kd [6]: 125 µM
ARHGEF30 (Obscurin/OBSCN) SH3 domain, GST cleaved (domain or fragment) EIFDIYVVTADYLPLGAEQDAITLREGQYVEVLDAAHPLRWLVRTKPTKSSPSRQGWVSPAYLDRRLK | – | – | 8.9 | –

Further lines, with some results ahead:

Kd [1] [µM] | Kd [2] [µM] | Kd [3] [µM] | Binder | other results
24.6 | 2.5 | – | NCK1-3, third SH3 domain of NCK1, GST cleaved (domain or fragment) QVLHVVQALYPFSSSNDEELNFEKGDVMDVIEKPENDPEWWKCRKINGMVGLVPKNYVTVMQN | –
– | 48 | 12 | BIN1 SH3 domain, GST cleaved (domain or fragment) GFMFKVQAQHDYTATDTDELQLKAGDVVLVIPFQNPEEQDEGWLMGVKESDWNQHKELEKCRGVFPENFTERVP | Kd [4]: 47 µM
– | – | 58.5 | DLG2 SH3 domain, GST cleaved (domain or fragment) KRSLYVRAMFDYDKSKDSGLPSQGLSFKYGDILHVINASDDEWWQARRVMLEGDSEEMGVIPSKRRVERKE | –
2 | – | – | NCK1-2 SH3 domain, GST cleaved (domain or fragment) DLNMPAYVKFNYMAEREDELSLIKGTKVIVMEKCSDGWWRGSYNGQVGWFPSNYVTEEGD | –
